From the nanobody polyreactivity screen of Harvey et al. (2022)

Experiment: yeast display, Sf9 membrane polyspecificity reagent, FACS + sequencing; frameworks hold sequencing errors
In short: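 Genes from sorted yeast were amplified by colony PCR, read by MiSeq 2 × 250 sequencing and filtered on CDR length. These cells carried a synthetic nanobody library in Saccharomyces cerevisiae BJ5465 and were sorted by FACS into low and high (top ~1%) gates on anti-HA and streptavidin fluorescence. Polyreactivity is labelled according to the gate of origin.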

Sequence | polyreactivity (PSR sort gate)
QVQLVESGGGLVQAGGSLRLSCAASGRIFQKNTMGWYRQAPGKERELVAAINWNGGRTYYADSVKGRFTISRDNAKNTVYLQMNSLKPEDTAVYYCAKDGYWDFDYWGQGTQVTVSS | low polyreactivity
QVQLVESGGGLVQAGGSLRLSCAASGRIYINNAMGWYRQAPGKDREFVAAITSGGRTYYADSVKGRFTISRDNAKYTVYLQMNSLKPEDTAVYYCAPRYYRQYTRHYGYGYWGQGTQVTVSS | high polyreactivity
QVQLVESGGGLVQAGGSLRLSCAASGRIFPGYTMGWYRQAPGKERELVAGISRSGGRTYYADSVKGRFTISRDNAKNTVYLQMNSLKPEDTAVYYCAADGYPGRRYTGMDYWGQGTQVTVSS | high polyreactivity
QVQLVESGGGLVPAGGSLRLSCAASGFIFQWYAMGWYRQAPGKERELVAAISSSGGSTYYADSVKGRFTISRDNAKNTVYLQMNSLKPEDTAVYYCAAVWASYPYRGVDYWGQGTQVTVSS | high polyreactivity
QVQLVESGGGLVQAGGSLRLSCAASGSIFVQNAMGWYRQAPGKERELVAAINSGGSTYYADSVKGRFTISRDNANNTVYLQMNSLKPEDTAVYYCAADHNYYAYSYYYWGQGTQVTVSS | low polyreactivity
QVQLVESGGGLVQAGGSLRLSCAASGSTFPSYAMGWYRQAPGKERELVAAINSGGGTNYADSVKGRFTISRDNAKNTVYLQINSLKPEDTAVFYCAKSRYDYTKTEGVYWGQGTQVTVSS | low polyreactivity
QVQLVESGGGLVQAGGSLRLSCAASGFTIWRYAMGWYRQEPGKERELVAAISRGGSTNYADSVKGRFTISRDNAKNTVYLQMNSLKPEDTAVYYCAASVLYRRLKKFYYWGQGTQVTVSS | high polyreactivity
QVQLVESGGGLVQAGGSLRLSCAASARIFWRNTMGWSRQAPGKERELVAAINYSGGRTYYADSVQGRFTISRDKAKNTVYLQMNSLKPEDTAVFDCAATPPVATNGRYYYWGQGTQVTVSS | low polyreactivity
QVQLVESGGGLVQAGGSLRLSCAASGGTINGNTMGWYRQAPGKERELVAVIDWSGGSTYYADSVKGRFTISRDNAKNTVYLQMNSLKPEDTAVNYCNADSDAQFREPKGMYYWGQGTQVTLSS | low polyreactivity
QVQLVESGGGLVQAGGTLRLSCAASGSTFPKYGMGWYRQAPGKEREFVARINWNGGGTYYADSVKGRFTISRDNAKNTVYLHMNSLKPEDTAVYYCNARKRGARFILGYDYWGQGTQVTVSS | low polyreactivity
QVQLVESGGGLVQAGGSLRLSCAASGRIFGYYAMGWYRQAPGKERELVAAITINGGRTYYADSVKGRFTISRDNAKNTVYLQMNSLKPEDTAVYYCTATSRYNRLGYWGQGTQVTVSS | high polyreactivity
QVQLVESGGGLVQAGGSLRLSCAASGGTLYLYAMGWYRQAPGKERELVAAISYNGGSTYAESVKGRFTISRDNAKNTVYLQKNSLKPEDTAVYYCAADRSPRGLGGYWGQGTQVTVSS | low polyreactivity
QVQLVESGGGLVQAGGSLRLSCAASGRIFRRYAMGWYRQAPGKERELVAAISTSGGSTYYADSVKGRFTISRDNAKNTVYLQMNSLKPEDTAVYYCNVYKPPTRGGVLQYGYWGQGTQVTVSS | low polyreactivity
QVQLVESGGGLVQAGGSLRLSCAASGNIIRSYMGWYRQAPGKERELVASISRRGGSTYYADSVKGRFTISRDNAKNTVYLHMNSLKPEDTAVYYCARRWSWVNGVFGYYWGQGTQVSVSS | high polyreactivity
QVQLVESGGGLVQAGGSLRLSCAASGSILGNAMGWYRQAPGKERELVAAISRNGDSTYYADSVKGRFTISRDNAKNTVYLQMNSLKPEDTAVYYCNAQWFFYGYIAGDYWGQGTQVTVSS | high polyreactivity
QVQLVESGGGLVQAGGSLRLSCAASGMTFTDYAMGWYRQAPGKERELVAAISRSGGTTYYADSVKGRFTISRDNAKNTVYLQMNSLKPEDTAVYYCAARVTPGRNGGGYWGQGTQVTVSS | high polyreactivity
QVQLVESVGGLVQAGGSLRLSCADSGLTFVDYAMGWYRQAPGKERELVAAITSSGGSITYYADSVKGRFTISRDNAKNTVYLQMKSLKPEDTAVYYCNADYGIYTDSFRGPDYESRGQGTQVTVSS | low polyreactivity
QVQLVESGGGLVQAGGSLRLSCAASGRIFQGYAMGWYRQAPGKERELVAAISVRGGSTFYADSVKGRFTISRDNAKNTVYLQMNSLKPEDTAVYYCATRTRYRGGYWGQGTQVTVSS | high polyreactivity
QVQLVESGAGLVQAGGSLRLSCAANTKGSYRQAPGKETELVAAINTGSSTYYADSVKGRFTISRDNAKNTVYLQMNSLKPEDTSVYYCNASYPQYLEYRTRQYNYWVQGTQVTVSS | low polyreactivity
QVQLVESGGGLDQAGGSLRLICAASGSTFRYNAMGWYRQAPGKERELVAAISSSGGSTRYADSVKGRFTISRDNAKNTVYLQMNSLKPEDTAVYYCAVRFYDWRYYYWGQGTQVTVSS | high polyreactivity
QVQLVESGGGLVQAGGSLRLSSAASGRIFYRYTMGWYRQAPGKERELVAAITRGSTNYADSVKGRFTISRDNAKNTVYLQMNSLKPDDTAVYYWAKAYSRTDRFSSPYYYYWGQGTQVTVSS | high polyreactivity
QVQLVESGGGLVKAGGSLRLSCAASGRNFSQNVMGWYRQAPGKERELVADISRGGSTNYADSVKGRFTISRDNAKNSVFLQMNSLKPEDTAVYYCAARLFWYYYHPYYYWGQGTQVTVSS | high polyreactivity

Sequence | polyreactivity (PSR sort gate)
QVQLVESGGGLVQAGGSLRLSCAASGSIFNLYAMGWYRQAPGKERELVAAIRWSGGSTYYADSVKGRFTISRDNAKNTVYLKMKSMKPEDTAVYYCNAEWKSYRVPKFEYWGQGTQVTVSS | low polyreactivity
QVQLVESGGGLVQAGGSLRLSCAASGRIFNQYGMGWYRQAPGKERELVAAIRSGDSTNYADSVKGRFTISRDNAKNTVYLQRNSLKPEDTAVYYSARDRPGDYAGYDYWGQGTQVTVSS | low polyreactivity
QVQLVESGGGLVQAGGSLRLSCAASGRIFGGNAMGWYRQAAGKERELVAGITGSGGSTYYADSVKGRFTISRDNAKNTVYLQMISLKPEDTAVYYCAAGYTYYYPSSGFDYWGQGTQVTVSS | low polyreactivity
HVQLQESGGGLVQAGGSLRLSCAASGSIFQATYMGWYRQAPGKEREFVASITYGSITNYADSVKGRFTIGRDNAKDTLYLQMNSLKPEDTAVYYCAVDRHYIPDFHYWGQGTQVTVSS | low polyreactivity
QVQLVESVGGLVQAGGSLRLSCAASGLILANYAMGWYRQAPGKERELVAAISSSGGSTYYADSVKGRFTISRDNAKNTVYLQMNSLKPEDTAVYYCAKAYRGGSAGKSYYYWGQGTQVTVSS | high polyreactivity
QVQLEESGGGLVQAGGSLRLSCAASGLIFVHYTMGWYRQAPGKERELVAAISRSGGSTSYADSVKGRFTISRDTAKNSVYLQMNSLKPEDTAVYYCAAVGSRSGLTPYEYWGQGTQVTVSS | high polyreactivity
QVQLVESGGGLVQAGGSLRLSCAASGNIFWRYAMGWYRQAPGKERELVAAISRRGGSTYYADSVKGRFTISRDNAKNTVYLQMNSLKPEDTAVYYCAASHSTWFSDPYGYWGQGTQVTVSS | low polyreactivity
QVQLVESGGGLVQAGGSLRLSCAASGRIFAYNTMGWYRQAPGKERELVAVITSGGSTNYADSVKGRFTISRDNAKNTVYLQMNSLKPEDTAVDYCNAPYVARKRFSYNYWGQGTQVTVSS | high polyreactivity
QVQLVESGGGLVQAGGSLRLSCAASGRIFASYAMGWYRQAPGKERELVAAISGSGASTYYADSVKGRFTISRDNAKNTVYLQMNSLKPEDTAVYYCAAKATSEGDEYWGQGTQVTVSS | high polyreactivity
QVQLVESGGGLVQAGGSLRLSCAASGRTFYGYAMGWYRQAPGKERELVAAISVSGGSTYYADSVKGRFTISRDNAKNTVYLQMNSLKPEDTAVYYCATKGLFTNSPLYVSAYDYWGQGTQVTVSS | low polyreactivity
QVQLVESGGGLVQAGGSLRLSCAASGSTFYPYFMGWYRQAPAKEREFVAAISKSGGSTYYADSVKGRFTISRDNAKNTVYLQMNSLKPEDTAVYYCNKKVGSYYRSYYYWGQGTQVTVSS | high polyreactivity
QVQLVESGGGLVQAGGSLRLSCAASGSTFYHYAMGWYRQAPGKERELVAAISTSGGRTYDADSVKGRFTISRDNAKNNVYLQMNSLKPEDTAVYYCAARPGSWYPSVPSYNYWGQGTQVTVSS | low polyreactivity
QVQLVESGGGLVQAGGSLRLSCAASGITFTVYAMGWYRQAPGKERELVAAINSVSSTNYADSVKGRFTISRDNAKNTVYLQMNSLKPEVTAVYYCAASYRKLPDKKRYGYWGQGTKVTVSS | high polyreactivity
QVQLVESGGGLVQAGGSLRLSCAASGLIFYDNLGWYRQAPGKERELVAAISSSGGSTSYADSVKGRFTISRDNAKNTVYLQMNSLKPEDTAVYYCAADSYPAYLGFVGFDYWGQGTQVTVSS | low polyreactivity
QVQLVESGGGLVQAGGSLRLSCAASGRIFNMYAMGWYRQAPGKERELVAAISVSGTRTYYADSVKGRFTISRDNAKNTVYLQMNSLKPEDTAVYYCAADSYGGVWSEHMYYWGQGTQVTVSS | low polyreactivity
QVQLVESGGGLVQAGGSHRLSCASSGIIFAWYVMGWSRQAPGKDSELVAAITQSGGSTFYADSVKGRFTISRDNAKNTVYLQMNSLKPEDTEVYYCNTEDFFNVPEMDSWGQGTQVTVSS | low polyreactivity
QVQLVESGGGLVQAGGSLRLSCAASGSTFNRYAMGWYRQAPGKERELVAAITSTGGTNYADSVKGRFTISLDNAKNTVYLQMYSLKPEDTAVYYCAKRWLRWRSNYWGQGTQVTVSS | high polyreactivity
QVQLVESGGGLVQAGGSLRLSCAASGLIFSRYAMGWYRQAPGKERELVAAITYRTVRTYYADSVKGRFTISRDNAKNTVYLQMNSLKPEDTAVYYCAADSARQRDYWGQGTQVTVSS | high polyreactivity
QVQLVESGGGLVQAGGSLRLSCAASGFIFLLNAMGWYRQAPGKEREFVAAISWGGGSTYYADSVKGRFTISRDNAKNTVYLQMNSLKPEDTAVYYCAAKPGKTPLTGHRGPYDTGYGYWGQGTQVTVSS | low polyreactivity
QVQLVESGGGLVQAGGSLRLSCAASGRIFGGYTMGWYRQAHGKERELFAAITGSGGRTYYAYSVKGRFTISRDNAKNTVYLQMNSLKPEDTAVYYCNTVYRYRYYWGEGTQVTVSS | high polyreactivity
QVQLVESGGGLVQAGGSLRLSCAASGRTFRANAMGWYRQAPGKERELVAAISKRGGNTYYADSVKGRFTISRDNAKYTVYLQMNSLKPEDTAVYYCAAHFIGRDYDYWGQGTQVTVSS | high polyreactivity
